Data on 13 substances can be found in patent US8551717B2, “Method for determining sumoylation” (Medizinische Hochschule Hannover, priority 2008, dated 2013).

Common to all, as to type: cell-based
For one test, the target named is T1, U-MK2 (Homo sapiens, UniProt P49137+P63279).
T1 construct: expressed in transfected cells; host or cells: HEK293
In words: Trans-SUMOylation by U-MK2. As to conditions: protein 2 construct coexpressed with U-MK2 and EGFP-SUMO1 in HEK293.

Another test deals with T2, U-p38α (Homo sapiens, UniProt P63279+Q16539).
T2 construct: expressed in transfected cells; host or cells: HEK293
T2 sequence (P63279+Q16539 fused): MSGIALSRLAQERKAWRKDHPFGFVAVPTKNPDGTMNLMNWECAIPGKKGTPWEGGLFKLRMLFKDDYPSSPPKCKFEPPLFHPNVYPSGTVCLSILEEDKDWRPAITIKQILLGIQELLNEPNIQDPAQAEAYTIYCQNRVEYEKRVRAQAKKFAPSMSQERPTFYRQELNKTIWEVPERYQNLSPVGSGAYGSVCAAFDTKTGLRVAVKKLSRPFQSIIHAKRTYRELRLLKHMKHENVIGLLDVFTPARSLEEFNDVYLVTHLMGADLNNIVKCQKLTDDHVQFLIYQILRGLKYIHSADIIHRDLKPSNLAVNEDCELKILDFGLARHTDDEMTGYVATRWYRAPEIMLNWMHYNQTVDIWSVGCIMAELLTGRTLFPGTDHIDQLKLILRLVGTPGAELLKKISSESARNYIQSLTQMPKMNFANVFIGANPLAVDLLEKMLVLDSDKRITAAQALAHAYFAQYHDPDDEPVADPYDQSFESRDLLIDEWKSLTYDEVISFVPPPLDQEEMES
In words: Trans-SUMOylation by U-p38α. The settings on record: protein 2 construct coexpressed with U-p38α and EGFP-SUMO1 in HEK293.

For the next test, the target named is T3, p53-U (Homo sapiens, UniProt P04637+P63279).
T3 construct: expressed in transfected cells; host or cells: HEK293
In words: Trans-SUMOylation by p53-U. As to conditions: western blot.

For another test, the target named is T4, JUN-U (Homo sapiens, UniProt P05412+P63279).
T4 construct: expressed in transfected cells; host or cells: HEK293
T4 sequence (P05412+P63279 fused): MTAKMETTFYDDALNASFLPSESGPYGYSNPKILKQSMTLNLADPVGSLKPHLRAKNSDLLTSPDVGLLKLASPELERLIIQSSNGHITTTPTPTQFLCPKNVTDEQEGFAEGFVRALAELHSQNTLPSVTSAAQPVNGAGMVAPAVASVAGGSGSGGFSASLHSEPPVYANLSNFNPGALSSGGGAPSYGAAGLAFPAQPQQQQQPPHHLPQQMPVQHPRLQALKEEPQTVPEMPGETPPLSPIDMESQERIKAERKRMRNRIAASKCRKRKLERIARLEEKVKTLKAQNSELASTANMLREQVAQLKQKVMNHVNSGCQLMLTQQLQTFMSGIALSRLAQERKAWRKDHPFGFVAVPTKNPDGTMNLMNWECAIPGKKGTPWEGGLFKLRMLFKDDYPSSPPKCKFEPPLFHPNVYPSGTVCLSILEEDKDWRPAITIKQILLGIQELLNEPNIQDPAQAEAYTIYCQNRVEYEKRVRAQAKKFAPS
Nature of the test: Trans-SUMOylation by JUN-U. As to conditions: protein 2 construct coexpressed with JUN-U and EGFP-SUMO1 in HEK293, western blot.

A further test has as its target T5, MK2-U (Homo sapiens, UniProt P49137+P63279).
T5 construct: expressed in transfected cells; host or cells: HEK293
In words: Trans-SUMOylation by MK2-U. The settings on record: protein 2 construct coexpressed with MK2-U and EGFP-SUMO1 in HEK293.

The target in a further test is T6, U-MK5 (Homo sapiens, UniProt P63279+Q8IW41).
T6 construct: expressed in transfected cells; host or cells: HEK293
T6 sequence (P63279+Q8IW41 fused): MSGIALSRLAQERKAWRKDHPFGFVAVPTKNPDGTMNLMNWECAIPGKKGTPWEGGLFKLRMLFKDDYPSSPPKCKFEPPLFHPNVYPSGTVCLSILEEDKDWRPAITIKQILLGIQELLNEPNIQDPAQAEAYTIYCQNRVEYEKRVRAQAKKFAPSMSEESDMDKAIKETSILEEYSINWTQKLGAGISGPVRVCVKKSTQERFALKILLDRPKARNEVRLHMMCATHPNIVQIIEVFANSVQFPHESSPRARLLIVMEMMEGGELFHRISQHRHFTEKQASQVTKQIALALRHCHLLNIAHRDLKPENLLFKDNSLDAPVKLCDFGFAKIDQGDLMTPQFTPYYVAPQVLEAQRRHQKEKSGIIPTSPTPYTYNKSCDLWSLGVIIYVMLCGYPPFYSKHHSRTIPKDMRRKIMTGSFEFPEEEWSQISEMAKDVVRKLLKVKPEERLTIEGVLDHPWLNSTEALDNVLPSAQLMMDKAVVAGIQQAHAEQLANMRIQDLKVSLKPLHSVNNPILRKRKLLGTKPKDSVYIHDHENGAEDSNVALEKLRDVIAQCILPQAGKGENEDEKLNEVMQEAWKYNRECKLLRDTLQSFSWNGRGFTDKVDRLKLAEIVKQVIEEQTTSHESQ
Nature of the test: Trans-SUMOylation by U-MK5. Set-up: key: (++), strong TransSUMOylation; (+), TransSUMOylation; (+/−) weak TransSUMOylation; (−) no detectable TransSUMOylation. The settings on record: protein 2 construct coexpressed with U-MK5 and EGFP-SUMO1 in HEK293, western blot. An excerpt:
(§1) To identify new SUMOylation substrates and to study the function of SUMOylation the Ubc9/substrate dimerisation-dependent SUMOylation system (USDDS) was developed which consists of fusions of the SUMOylation substrate and of the SUMO-conjugating enzyme Ubc9 to the chemically activatable heterodimerisation domains FKBP and FRB, respectively, as shown in FIG. 2. When the substrate protein fused to FKBP is coexpressed with Ubc9-FRB, treatment of HEK293 cells with the rapamycin-related dimerizer AP21967 induces SUMOylation of the substrate protein fused to FKBP at its specific SUMOylation site. […] Dependent on an EcoRl site in the coding sequence, seven C-terminal amino acids of the human STAT1a in the STAT1-FKBP/FRB fusion proteins are missing. For the SUMOylation analysis HEK293 (human embryonic kidney cells) cells have been used. HEK293 cells were cultured in Dulbecco's modified Eagle's medium with high glucose, complemented with 10% fetal calf serum, 2 mM L-glutamine, 100 U/ml penicillin and […] streptomycin. We performed transfection of HEK293 cells using the polyethylenimine transfection reagent. HEK293 cells of a fresh confluent 10 cm plate were transferred on a 12-well plate. After 12-24 h incubation about 70% cell confluence is reached. For each well 45 μl of serum/antibiotic free DMEM medium is mixed with 750 ng of the transfection-purity expression vector DNA (all together 47 μl) and vortexed. Then, 3 μl of vortexed polyethylenimin stock solution (1 mg/ml) is added and the mixture is vortexed. After incubation at room temperature for 10 min 450 μl fresh DMEM with antibiotics is added to the mixture and vortexed. The medium on the cells was then completely removed and immediately, the 500 μl transfection mix was added carefully to each well. The 12 well plate was rocked to ensure a proper distribution of the DNA/transfection reagent complex. After an incubation of the cells for 24 h at a 37° C. in a humidified CO2-incubator (5%) the cells were lysed in 150 μl Laemmli (2×) gel loading buffer (160 mM Tris-HCL, pH 6.8, 4% (w/v) sodium dodecyl sulphate (SDS), 20% (v/v) glycerol, 0.5% β-mercaptoethanol (v/v), 0.008% (w/v) bromophenol blue) and incubated for 10 min at 95° C. For western blot analysis the proteins were separated by SDS-PAGE, blotted on a PVDF membrane and developed with specific primary antibodies (α-Ubc9 (H81, Santa Cruz), α-pY701-STAT1 (Tyr701, Cell Signaling), α-STAT1 (Cell Signaling), α-p53 (1C12, Cell Signaling), α-SUMO1 (Cell Signaling), a horseradish peroxidase (HRP)-conjugated secondary antibody (different companies), the ECL+ (Amersham) or Immobilon™ Western (Millipore) and the LAS-3000 imaging system (Fuji).
As shown above, the SUMOylation of a protein of interest can be induced by the heterodimerisation with a binding protein fused to Ubc9. To find out if Trans-SUMOylation is useful for the characterisation of common protein interactions, protein binding pairs well known from the literature or found in two hybrid screens. […] Therefore the protein pairs were coexpressed with EGFP-SUMO1 in HEK293 cells and after 24h the transfectants were lysed and the protein extracts were analyzed in western blots.
Protein-protein interactions described in the cited references were tested for Trans-SUMOylation. Each specific protein-protein interaction was tested by coexpression of different combinations of protein 1 fused to Ubc9 (U) with protein 2 mostly fused two a tag (HA, FLAG, Myc, GST, ST). (++), strong TransSUMOylation; (+), TransSUMOylation; (+/−) weak TransSUMOylation; (−) no detectable TransSUMOylation; (MEKK1ca) the activated MAP3 kinase MEKK1, that can enhance protein SUMOylation, was coexpressed.
Protein-protein interaction of each pair of protein 1/protein 2 was tested by coexpression of different combinations of a protein 1 fused to Ubc9 (U) with protein 2 mostly fused two a Tag (HA, FLAG, GST, ST). […]

Another test addresses T7, U-CSNK2B (Homo sapiens, UniProt P63279+P67870).
T7 construct: expressed in transfected cells; host or cells: HEK293
In words: Trans-SUMOylation by U-CSNK2B. Set-up: key: (++), strong TransSUMOylation; (+), TransSUMOylation; (+/−) weak TransSUMOylation; (−) no detectable TransSUMOylation. As to conditions: protein 2 construct coexpressed with U-CSNK2B and EGFP-SUMO1 in HEK293, western blot.
From the text: as §1, with “The 12 well plate was rocked to ensure a proper distribution of the DNA/transfection reagent complex. After an incubation of the cells for 24 h at a 37° C. in a humidified CO2-incubator (5%) the cells were lysed in 150 μl Laemmli (2×) gel loading buffer (160 mM Tris-HCL, pH 6.8, 4% (w/v) sodium dodecyl sulphate (SDS), 20% (v/v) glycerol, 0.5% β-mercaptoethanol (v/v), 0.008% (w/v) bromophenol blue) and incubated for 10 min at 95° C. For western blot analysis the proteins were separated by SDS-PAGE, blotted on a PVDF membrane and developed with specific primary antibodies (α-Ubc9 (H81, Santa Cruz), α-pY701-STAT1 (Tyr701, Cell Signaling), α-STAT1 (Cell Signaling), α-p53 (1C12, Cell Signaling), α-SUMO1 (Cell Signaling), a horseradish peroxidase (HRP)-conjugated secondary antibody (different companies), the ECL+ (Amersham) or Immobilon™ Western (Millipore) and the LAS-3000 imaging system (Fuji).” left out
As shown above, the SUMOylation of a protein of interest can be induced by the heterodimerisation with a binding protein fused to Ubc9. […] Therefore the protein pairs were coexpressed with EGFP-SUMO1 in HEK293 cells and after 24h the transfectants were lysed and the protein extracts were analyzed in western blots. […]

A further test has as its target T8, CSNK2B-U (Homo sapiens, UniProt P63279+P67870).
T8 construct: expressed in transfected cells; host or cells: HEK293
Nature of the test: Trans-SUMOylation by CSNK2B-U. The settings on record: protein 2 construct coexpressed with CSNK2B-U and EGFP-SUMO1 in HEK293, Table 1.

Setting [1] is: protein 2 construct coexpressed with P53-U (p53-U) and EGFP-SUMO1 in HEK293, Table 1.
Where [2] appears, read: MEKK1ca (Table 1B: MEKK1) coexpressed, Table 1.
Where [3] appears, read: protein 2 construct coexpressed with p53-U and EGFP-SUMO1 in HEK293, Table 2.

T8 sequence (P67870+P63279 fused): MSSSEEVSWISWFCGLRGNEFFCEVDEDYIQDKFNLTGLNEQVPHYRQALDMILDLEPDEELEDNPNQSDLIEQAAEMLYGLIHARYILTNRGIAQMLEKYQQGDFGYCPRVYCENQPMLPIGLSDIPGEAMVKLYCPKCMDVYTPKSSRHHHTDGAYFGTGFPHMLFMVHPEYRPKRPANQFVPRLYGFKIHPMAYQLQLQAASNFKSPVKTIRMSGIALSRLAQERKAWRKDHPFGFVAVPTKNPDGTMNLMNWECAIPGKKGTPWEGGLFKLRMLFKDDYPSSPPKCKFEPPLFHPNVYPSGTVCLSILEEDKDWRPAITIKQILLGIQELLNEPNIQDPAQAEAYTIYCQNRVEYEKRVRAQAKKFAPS
T5 sequence (P49137+P63279 fused): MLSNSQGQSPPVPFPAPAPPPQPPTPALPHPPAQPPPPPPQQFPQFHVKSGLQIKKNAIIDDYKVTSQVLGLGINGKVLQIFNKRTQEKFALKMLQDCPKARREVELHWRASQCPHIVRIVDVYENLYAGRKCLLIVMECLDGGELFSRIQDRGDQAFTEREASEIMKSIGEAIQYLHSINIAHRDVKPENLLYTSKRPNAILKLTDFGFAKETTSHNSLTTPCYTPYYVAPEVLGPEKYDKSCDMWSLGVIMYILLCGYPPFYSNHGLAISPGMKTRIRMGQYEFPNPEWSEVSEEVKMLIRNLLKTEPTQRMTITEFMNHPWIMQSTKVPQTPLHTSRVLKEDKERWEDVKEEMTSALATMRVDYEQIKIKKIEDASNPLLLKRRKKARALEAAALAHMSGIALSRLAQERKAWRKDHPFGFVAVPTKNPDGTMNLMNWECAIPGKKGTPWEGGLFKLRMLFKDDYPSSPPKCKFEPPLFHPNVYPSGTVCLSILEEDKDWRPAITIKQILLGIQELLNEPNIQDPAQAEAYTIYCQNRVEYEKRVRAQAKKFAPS
T7 sequence (P63279+P67870 fused): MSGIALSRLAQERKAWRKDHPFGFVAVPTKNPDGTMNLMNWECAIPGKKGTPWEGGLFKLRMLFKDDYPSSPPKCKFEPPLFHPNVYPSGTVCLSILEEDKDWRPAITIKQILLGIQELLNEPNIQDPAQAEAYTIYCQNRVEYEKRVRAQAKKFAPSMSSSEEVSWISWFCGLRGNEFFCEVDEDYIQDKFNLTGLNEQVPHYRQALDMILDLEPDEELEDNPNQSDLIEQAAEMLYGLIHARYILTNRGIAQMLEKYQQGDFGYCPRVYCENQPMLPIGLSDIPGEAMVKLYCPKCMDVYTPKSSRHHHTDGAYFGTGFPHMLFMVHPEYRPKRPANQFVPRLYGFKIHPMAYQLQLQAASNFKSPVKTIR
T1 sequence (P63279+P49137 fused): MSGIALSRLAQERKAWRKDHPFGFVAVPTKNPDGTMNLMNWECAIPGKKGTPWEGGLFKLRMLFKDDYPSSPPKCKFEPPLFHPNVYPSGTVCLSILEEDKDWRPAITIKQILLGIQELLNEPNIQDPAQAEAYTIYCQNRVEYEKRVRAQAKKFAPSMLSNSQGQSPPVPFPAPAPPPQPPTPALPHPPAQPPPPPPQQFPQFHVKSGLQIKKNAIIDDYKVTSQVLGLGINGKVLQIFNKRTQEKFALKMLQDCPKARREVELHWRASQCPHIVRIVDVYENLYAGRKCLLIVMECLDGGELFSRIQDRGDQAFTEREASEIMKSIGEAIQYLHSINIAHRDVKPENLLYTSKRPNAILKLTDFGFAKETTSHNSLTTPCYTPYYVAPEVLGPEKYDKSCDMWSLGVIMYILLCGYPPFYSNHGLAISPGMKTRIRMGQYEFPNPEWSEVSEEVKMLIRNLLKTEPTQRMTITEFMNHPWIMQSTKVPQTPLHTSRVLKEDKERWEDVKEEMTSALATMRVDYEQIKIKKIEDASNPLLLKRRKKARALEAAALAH

“ERK1: ERK1, protein 2 construct without tag”: the Trans-SUMOylation entry with U-MK2 (western blot, Table 2) is reported as “+”; with U-p38α (western blot, Table 1) it was “+”; with p53-U (setting [1]) it was “−”.
As to FLAG-p38α: p38α fused to FLAG tag, the Trans-SUMOylation entry was “−” with JUN-U (Table 2); “+” in the test with U-MK2 (western blot, Table 1); “+” with MK2-U (western blot, Table 1); “+” with U-MK5 (Table 1); “−” with p53-U (setting [1]); “−” in the test with U-CSNK2B (Table 1).
For GST-ERK3: ERK3 fused to GST tag, the Trans-SUMOylation entry with U-MK2 (western blot, Table 2) was “−”; in the test with U-p38α (western blot, Table 2), “−”; in the test with U-MK5 (Table 1), “+”.
On to GST-FOS: FOS fused to GST tag, for which the Trans-SUMOylation entry with MK2-U (western blot, Table 2) was “−”.
As for GST-MK2: MK2 fused to GST tag, the Trans-SUMOylation result with JUN-U (Table 2) is recorded as “−”; in the test with U-MK2 (MEKK1 coexpressed, Table 2), “++ (MEKK1)”; with U-MK2 (western blot, Table 2), “+”; with MK2-U (MEKK1 coexpressed, Table 2), “++ (MEKK1)”; with MK2-U (western blot, Table 2) it was “+”; in the test with U-p38α (setting [2]) it was “++ (MEKK1ca)”. Further, the Trans-SUMOylation entry is listed as “+” in the test with U-p38α (western blot, Table 1); “(+/−)” with U-MK5 (Table 2); “−” in the test with p53-U (setting [3]); “(+/−)” with U-CSNK2B (Table 2).
Consider HA-CSNK2B: CSNK2B fused to HA tag, for which, in the test with CSNK2B-U (MEKK1ca coexpressed), the Trans-SUMOylation result is “+ (MEKK1ca)”.
Consider HA-ERK2: ERK2 fused to HA tag, for which the Trans-SUMOylation entry is “−” in the test with JUN-U (Table 2); “+” with U-MK2 (western blot, Table 1); “+” with U-p38α (western blot, Table 1); “+” with p53-U (setting [1]).
On to HA-HSP27: HSP27 fused to HA tag, for which the Trans-SUMOylation entry is on record as “−” with U-MK2 (western blot, Table 1) and “−” with MK2-U (western blot, Table 1).
As to HA-JNK2: JNK2 fused to HA tag, the Trans-SUMOylation entry in the test with JUN-U (Table 1) is reported as “−”; in the test with U-MK2 (western blot, Table 2), “−”; with U-p38α (western blot, Table 2) it was “−”; with U-MK5 (Table 2), “−”; with p53-U (setting [1]) it was “−”.
With HA-JUN: JUN fused to HA tag, the Trans-SUMOylation result is recorded as “+” with JUN-U (Table 1) and “(+/−)” in the test with MK2-U (western blot, Table 2).
As for Myc-MK2: MK2 fused to Myc tag, the Trans-SUMOylation result with JUN-U (Table 2) is “−”; in the test with U-MK2 (MEKK1 coexpressed, Table 2) it was “+ (MEKK1)”; in the test with U-MK2 (western blot, Table 2), “−”; with MK2-U (MEKK1 coexpressed, Table 2), “+ (MEKK1)”; with MK2-U (western blot, Table 2) it was “+”; in the test with U-p38α (setting [2]) it was “++ (MEKK1ca)”. Moreover, the Trans-SUMOylation entry in the test with U-p38α (western blot, Table 1) was “+”; with U-MK5 (Table 2), “+”; with p53-U (setting [3]) it was “−”; with U-CSNK2B (Table 2) it was “(+/−)”.
For “p53K386R-ST(377-389): p53K386R fused to SUMOylation site tag 377-389”, the Trans-SUMOylation result was “+” in the test with CSNK2B-U (western blot) and “−” with U-MK2 (western blot, Table 2).
The corresponding values for “p53K386R-ST(377-391): p53K386R fused to SUMOylation site tag 377-391” are “+” and “−”.
